From PMC12618267, “GAGA zinc finger transcription factor searches chromatin by 1D–3D facilitated diffusion”
One block for each molecule: values may come before it.

Tests used:
[1] = test system: T1, HA-GAF-FL (Drosophila melanogaster), Q08605-2; assay: EMSA; details: ~15 nM protein, 3 nM NCP; 12.5 mM HEPES-KOH pH 7.6, 0.05 mM EDTA, 6.25 mM MgCl2, 5% glycerol, 50 mM NaCl, 50 ug/ml BSA, 0.05% NP-40; EMSA at room temperature; smFRET adds dextrose …
T1 sequence: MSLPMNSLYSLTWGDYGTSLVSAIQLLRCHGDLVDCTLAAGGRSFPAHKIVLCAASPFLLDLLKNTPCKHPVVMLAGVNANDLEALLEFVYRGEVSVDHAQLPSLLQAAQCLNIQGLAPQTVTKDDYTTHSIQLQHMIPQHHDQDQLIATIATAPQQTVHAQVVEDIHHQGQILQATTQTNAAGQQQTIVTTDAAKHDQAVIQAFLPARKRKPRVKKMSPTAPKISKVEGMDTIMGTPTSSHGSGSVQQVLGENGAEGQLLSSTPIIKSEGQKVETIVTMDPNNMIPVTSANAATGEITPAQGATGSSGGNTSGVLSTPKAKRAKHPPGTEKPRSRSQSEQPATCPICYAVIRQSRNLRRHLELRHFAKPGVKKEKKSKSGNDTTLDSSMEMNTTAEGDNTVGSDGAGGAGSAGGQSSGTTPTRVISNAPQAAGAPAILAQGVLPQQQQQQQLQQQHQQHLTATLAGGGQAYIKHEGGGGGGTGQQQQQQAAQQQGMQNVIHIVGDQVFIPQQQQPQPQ

[2] = test system: T2, Cy3-GAF-DBD / GAF-DBD (Drosophila melanogaster), Q08605-2; assay: EMSA; details: 3 nM DNA; 12.5 mM HEPES-KOH pH 7.6, 0.05 mM EDTA, 6.25 mM MgCl2, 5% glycerol, 50 mM NaCl, 50 ug/ml BSA, 0.05% NP-40; EMSA at room temperature; smFRET adds dextrose …
T2 sequence: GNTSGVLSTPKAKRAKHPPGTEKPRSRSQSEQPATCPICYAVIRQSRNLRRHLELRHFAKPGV

[3] = test system: T2, Cy3-GAF-DBD / GAF-DBD (Drosophila melanogaster), Q08605-2; assay: smFRET; details: from koff/kon; dwell 3.1 s; 6.25 mM Mg2+; 12.5 mM HEPES-KOH pH 7.6, 0.05 mM EDTA, 6.25 mM MgCl2, 5% glycerol, 50 mM NaCl, 50 ug/ml BSA, 0.05% NP-40; EMSA at room temperature; smFRET adds dextrose …
[4] = target: SNAP-tagged full-length GAGA factor (MBP–SNAP–GAF–6×His) (Drosophila melanogaster); assay: mass photometry; Refeyn TwoMP; proteins free in solution; optical tweezers imaging buffer without NP-40; 10-min incubation before measuring; at concentrations similar to those of the optical tweezers experiments (80 nM GAF-FL, 25 nM GAF-ΔPOZ)
HA-GAF-FL = target: T3, HA-GAF-FL (Drosophila melanogaster, UniProt Q08605-2 1-519); assay: EMSA; 3 nM DNA; 12.5 mM HEPES-KOH pH 7.6, 0.05 mM EDTA, 6.25 mM MgCl2, 5% glycerol, 50 mM NaCl, 50 ug/ml BSA, 0.05% NP-40; EMSA at room temperature; smFRET adds dextrose, Trolox, glucose oxidase, catalase; details: protein: recombinant; tags: N-terminal HA; chain copies: 6; label: Cy5 at end
T3 sequence: T1 sequence

Molecule: GTGTCATTTGTTTGGCAGAAAGAAAACTCGAGAAATTTCTCTGGCCGTTATTCTCTATTCGTTTTGTGACTCTCCCTCTCTGTACTATTGCTCTCTCACTCTGTCGCACAGTAAACGGCACACTGTTCTCGTTGCTTCGAGAGAGCGCGCCTCGAA (double strand) [hsp70 NCP (3-N-6 nucleosome)]
binding signal (fold less bound than free DNA) [1]: 2

Molecule: GTGTCATTTGTTTGGCAGAAAGAAAACTCGAGAAATTTCTCTGGCCGTTATTCTCTATTCGTTTTGTGACTCTCCCTCTCTGTACTATTGCTCTCTCACTCTGTCGCACAGTAAACGGCACACTGTTCTCGTTGCTTCGAGAGAGCGCGCCTCGAA (double strand) [hsp70 NCP DNA (free, 3-N-6)]
K half [2]: 12 nM

Molecule: GTTTTGTGAGTACGCGCTGTTGTACTATTGTTAACCCACAAGGTCGCACAGTAAACGGCACACTGTACGTGTTGCTTCGAGAGAGCGCGC (double strand) [Cy5-cognate DNA 90 bp]
Kd [3]: 11.5 nM

stoichiometry N [4]: 8
Molecule: SNAP-tagged full-length GAGA factor (MBP–SNAP–GAF–6×His) (natural protein)

B1: hsp70 NCP DNA (free, 3-N-6) (dsDNA)
DNA 1: GTGTCATTTGTTTGGCAGAAAGAAAACTCGAGAAATTTCTCTGGCCGTTATTCTCTATTCGTTTTGTGACTCTCCCTCTCTGTACTATTGCTCTCTCACTCTGTCGCACAGTAAACGGCACACTGTTCTCGTTGCTTCGAGAGAGCGCGCCTCGAA
DNA 2: TTCGAGGCGCGCTCTCTCGAAGCAACGAGAACAGTGTGCCGTTTACTGTGCGACAGAGTGAGAGAGCAATAGTACAGAGAGGGAGAGTCACAAAACGAATAGAGAATAACGGCCAGAGAAATTTCTCGAGTTTTCTTTCTGCCAAACAAATGACAC
binding result (HA-GAF-FL): binds
